Assay results: patent US20180112001A1 (Regeneron, published 2018)

Assays:
[1] = molecular target: T1, human MUC16 (mucin 16), endogenously expressed on cells (human); assay: MSD electrochemiluminescence cell binding; RLU ratio OVCAR-3/SK-OV-3; Ab 16.7 nM
T1 construct: Endogenous MUC16 on OVCAR-3 / OVCAR3-Luc / PEO-1 / HPAC cells; also called hMUC16

[2] = molecular target: T2, MUC16 "short" construct expressed on PC3 cells (PC3/MUC16 short) (human); assay: IHC on FFPE cell pellets, PC3/MUC16 Short cells
T2 construct: Transfected into PC3/ATCC cells; part of SEA12, SEA13-SEA16, C-terminal non-SEA region, transmembrane region and cytoplasmic domain; also called "nub" portion of MUC16 without the repeat regions
T2 chain: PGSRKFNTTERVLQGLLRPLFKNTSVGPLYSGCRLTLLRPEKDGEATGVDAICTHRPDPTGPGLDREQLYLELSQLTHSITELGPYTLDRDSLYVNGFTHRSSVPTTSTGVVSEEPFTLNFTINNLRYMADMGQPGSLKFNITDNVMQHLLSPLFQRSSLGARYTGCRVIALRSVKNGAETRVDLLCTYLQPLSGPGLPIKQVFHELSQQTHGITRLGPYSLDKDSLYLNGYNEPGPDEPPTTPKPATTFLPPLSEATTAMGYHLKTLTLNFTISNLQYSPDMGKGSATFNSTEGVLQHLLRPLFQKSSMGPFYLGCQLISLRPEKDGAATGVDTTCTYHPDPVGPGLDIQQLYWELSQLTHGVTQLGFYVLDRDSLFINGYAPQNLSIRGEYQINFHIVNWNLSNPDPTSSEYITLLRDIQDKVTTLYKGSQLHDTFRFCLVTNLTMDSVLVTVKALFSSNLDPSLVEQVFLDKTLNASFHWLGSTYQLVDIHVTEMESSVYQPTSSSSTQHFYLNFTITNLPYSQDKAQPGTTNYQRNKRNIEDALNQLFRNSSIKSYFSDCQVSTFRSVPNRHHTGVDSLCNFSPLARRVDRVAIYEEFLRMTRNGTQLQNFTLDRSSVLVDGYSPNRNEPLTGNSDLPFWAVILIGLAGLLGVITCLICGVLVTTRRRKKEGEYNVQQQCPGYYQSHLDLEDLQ

[3] = molecular target: T3, soluble monomeric human MUC16, truncated format encompassing the last five SEA domains of Mucin-16 (human); assay: SPR Biacore, antibody captured, soluble monomeric hMUC16.mmh injected, 25C
T3 construct: also called hMUC16.mmh; MUC16 "nub"
T3 chain: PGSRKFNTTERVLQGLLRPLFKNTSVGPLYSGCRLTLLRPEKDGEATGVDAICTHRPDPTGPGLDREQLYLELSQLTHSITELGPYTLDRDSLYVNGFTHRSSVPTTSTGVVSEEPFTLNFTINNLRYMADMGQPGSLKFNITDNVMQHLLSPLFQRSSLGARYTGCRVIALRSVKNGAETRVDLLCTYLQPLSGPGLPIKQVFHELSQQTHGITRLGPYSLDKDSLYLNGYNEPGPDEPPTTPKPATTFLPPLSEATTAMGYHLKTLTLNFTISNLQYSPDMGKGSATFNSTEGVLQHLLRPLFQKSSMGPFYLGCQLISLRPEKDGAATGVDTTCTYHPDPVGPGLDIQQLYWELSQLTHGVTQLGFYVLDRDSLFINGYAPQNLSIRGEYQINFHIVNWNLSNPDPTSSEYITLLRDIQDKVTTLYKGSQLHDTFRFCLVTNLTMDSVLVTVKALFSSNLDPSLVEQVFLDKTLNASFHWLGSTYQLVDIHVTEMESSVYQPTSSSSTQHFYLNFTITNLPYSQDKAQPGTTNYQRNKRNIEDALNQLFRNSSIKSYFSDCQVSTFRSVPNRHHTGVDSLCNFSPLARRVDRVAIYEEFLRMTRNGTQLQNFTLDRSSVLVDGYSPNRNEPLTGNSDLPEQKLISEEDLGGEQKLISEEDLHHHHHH

[4] = molecular target: T1, human MUC16 (mucin 16), endogenously …; assay: MSD electrochemiluminescence cell binding; RLU ratio OVCAR-3/SK-OV-3; Ab 1.9 nM

Ratio: anti-MUC16 Binding OVCAR-3/SK-OV-3 [1]: 50 ratio
binding result [2]: binds
Kd [3]: 1.25 nM
koff [3]: 9.25e-05 s⁻¹
kon [3]: 74100 M⁻¹ s⁻¹
t ½ [3]: 2.08 h
Ratio: anti-MUC16 Binding OVCAR-3/SK-OV-3 [4]: 82 ratio
B1: H2M7138N (antibody, mouse IgG2, V domains shown)
VH: QVQLVQSGAEVKKPGASVKVSCKASGYTFTSSDINWVRQATGQGLEWVGWMNPNYGYTGSARKFQDRVTMTRNTSLSTAYLELHSLRSEDTAVYYCARVTYCSSVTSCFRPFTYWGQGTLVTVSA
VL: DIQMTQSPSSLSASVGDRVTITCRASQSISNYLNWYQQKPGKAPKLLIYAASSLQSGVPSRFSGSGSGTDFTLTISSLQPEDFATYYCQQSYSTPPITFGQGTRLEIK
notes: Mouse IgG2 constant region (H2M); also called H2aM7138N
